Tested on: MS2 coat protein
Assay: apparent KD of MS2 coat protein; designed switch direction (-1 OFF switch, 1 ON switch): -1; higher = weaker reporter binding
Summary of the method: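 Designed RNA switches with common flanks were made on Illumina chips by stalled E. coli RNA polymerase. Titration with SNAP-549-labelled MS2 coat protein doubled from 0.7 or 1.5 nM up to 3 µM. Apparent KD is each design's median over clusters after curve-fitting normalised fluorescence.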

[1] = input ligand: microRNA oligo, concentration not stated
[2] = Eterna round: R95, input ligand: FMN 200 uM
[3] = Eterna round: R95, input ligand: microRNA oligo, concentration not stated
[4] = Eterna round: R95, input ligand: none

| Sequence | apparent KD of MS2 coat protein (input ligand: FMN 200 uM) [nM] | apparent KD of MS2 coat protein [1] [nM] | apparent KD of MS2 coat protein (input ligand: none) [nM] | apparent KD of MS2 coat protein [2] [nM] | apparent KD of MS2 coat protein [3] [nM] | apparent KD of MS2 coat protein [4] [nM] |
| --- | --- | --- | --- | --- | --- | --- |
| CGUCGACAUGUAGGAUAUCUGCACGUUUAGUGCAGAGAAGGACAUGAGGAUCACCCAUGUAGAUCACGACGAAUUAAUUUAAUU [ENG1/6-C2] (Eterna round: R96, puzzle: Exclusion NG 1) | 24 | 205 | 1540 |  |  |  |
| GAGUUAACAUGAGGAAUAUACAUGAGGAUCACCCAUGUUAACAAAUUUAUUGCUCGUCUUAUAACAACAAUUAACUC [Alarm 5 - Jieux - Sensor, turn-off variant 1] (Eterna round: R97, puzzle: Sensor, turn-off variant 1) | 105 |  | 111 |  |  |  |
| UUCGCAAAAUUAGGUCCUAACAUGAGGAUCACCCAUGUUCUAGGUAAGUGCCUCCGCCCGCUAACUGUUCGUCUUGU [Eternabot (L1) Solution 36] (Eterna round: R97, puzzle: Sensor, turn-off variant 1) | 23.1 |  | 24.9 |  |  |  |
| UUUAAUUUUUUUUUUUUACAAGCUUUUUGCUCGUCUUAUACAUGAGGAUCACCCAUGUGGGUGGAGGAUAAAUUAUC [JMF 35] (puzzle: Sensor v3, turn-off variant 2) |  |  |  | 60.6 | 45.4 | 93.9 |
| AAAAGAACGGCAGGAUAUGCAAGCACUGACCUCCCAAAAUAAAGAAACAUGAGGAUCACCCAUGUGCAGAAGGGCCAAAAGUGC [Vediusin] (Eterna round: R96, puzzle: Exclusion NG 2) |  | 10.4 |  |  |  |  |
| GUUACACAUGAGGAUCACCCAUGUAAGGAUAUGCUGCGGUCGCGCUGACGUGACUGCAGCAGAAGGUACAAUUG (puzzle: Exclusion 1) |  |  |  |  | 67.6 |  |
| UUAUUAAUUAAGACUGCAAGAUCACAUGAGGAUCACCCAUGUCAGGAUAUCAGCUCGUUUAGAGCUGAGAAGGGACAAGCAGUC [ExNG3/15-A2] (Eterna round: R96, puzzle: Exclusion NG 3) | 337 | 98 | 94.4 |  |  |  |
| AACUGGACAGGAUAUGUUCUUGAGCACUUGAGGAUCACCCAAGUCAUCAAGAACUCAGGCACAGAAGGGUUUAUGU [salish99_ex5_r4_002] (Eterna round: R97, puzzle: Exclusion 5) | 45.9 |  | 13.6 |  |  |  |
| ACAUGAGGAUCACCCAUGUCAGGUGGGUCCUCUCCGGCUGUUGAGGAUAUAGUCCGGUAUCCGCGCUAGAAGGUGAGGGCCGGC [Aenatbe mod 17] (Eterna round: R96, puzzle: Exclusion NG 3) | 29.8 | 31.1 | 33.7 |  |  |  |
| GAUUCGCGAGGAUAUACAGUCGAGUCCAUUACGUGUCUGGGACUUGAGGAUCACCCAAGUAGAAGGCGUCUCAU [salish99_ex2_r4_638] (Eterna round: R97, puzzle: Exclusion 2) | 55.6 |  | 57.8 |  |  |  |
| CAUAUAGUAGUCAGGAUAUGCGAAGAGAGAAGGAAGUAGAAGGGACAUGAGGAUCACCCAUGUAUAUUGUAAAG [EX-4 Malc #3] (puzzle: Brourd's mod of Exclusion 4) |  |  |  | 29.6 | 28.9 | 28.4 |
| GUUGCAAGCACUUACGUUGACAUGAGGAUCACCCAUGUAGCAUCUCCGCCAAUCUAAGCCGUUGUCUUAUAUACCUU [Eternabot (L2) Solution 3] (Eterna round: R97, puzzle: Sensor, turn-off variant 1) | 34.5 |  | 51.7 |  |  |  |
| AUAUUACGAGGAUAUCGUUUUUUUCACAUGAGGAUCACCCAUGUUAUUUAUGUUUCGUUUCGAGAAGGCGUAAGUU [JR_E5_Sub069] (puzzle: Exclusion 5) |  |  |  |  | 22.3 |  |
| GAAGAGACAGGAUAUACAUGAGGAUCACCCAUGUGAGGAGGUUGGAGGCGGAGGAGGUGUAGAAGGGUCAAAGA [JR_Exclu3_Sub021] (puzzle: Exclusion 3) |  |  |  | 41.6 | 29.7 | 38.8 |
| CUCGUGCAGCAAAGCUGUACGAGUACAUGAGGAUCACCCAUGUAGGAUAUGGUACGCUUUGCGUGCUAGAAGGACGUGUGUAUG [Mat - Exclusion NG 3 - Mod of JL - D90] (Eterna round: R96, puzzle: Exclusion NG 3) | 75.4 | 26.9 | 39.6 |  |  |  |
| AUCAAAGAAUAUCAUAAGCACAUGAGGAUCACCCAUGUGAUGGGUGAGAGCCUGAAAGCCACUUCUGCUCGUCUUAU [Cac Sensor turn off var1 sub9] (Eterna round: R97, puzzle: Sensor, turn-off variant 1) | 969 |  | 883 |  |  |  |
| AGAGUGCUGCGAGGAUAUACAUGAGGAUCACCCAUGUAAAUGUGUGAGGCUUUGCCUCACACAAUGUAGAAGGCGCAGUACUCA [Mat - Exclusion NG 2 - Mod of JL - D2] (Eterna round: R96, puzzle: Exclusion NG 2) | 19 | 10.7 | 14.4 |  |  |  |

| Sequence | apparent KD of MS2 coat protein (input ligand: FMN 200 uM) [nM] | apparent KD of MS2 coat protein [1] [nM] | apparent KD of MS2 coat protein (input ligand: none) [nM] | apparent KD of MS2 coat protein [2] [nM] | apparent KD of MS2 coat protein [3] [nM] | apparent KD of MS2 coat protein [4] [nM] |
| --- | --- | --- | --- | --- | --- | --- |
| UCCUCACAUGAGGAUCACCCAUGUUAGGAUAUCUUAUAGAGCUUGAGACAGUUCUUUAAGAGAAGGAACUGGGC [Exclusion 1 (MOD2.2 of Edarti)] (Eterna round: R97, puzzle: Exclusion 1) | 120 |  | 115 |  |  |  |
| GUACCAAUUGUAGGAUAUGGAUCCGAUUAGGAUCCAGAAGGACAUGAGGAUCACCCAUGUACAUGAGGAUCACCCAUUAGGUAC [Fiskers ExNg1 - 12] (Eterna round: R96, puzzle: Exclusion NG 1) | 53.2 | 30.9 | 46.1 |  |  |  |
| AAGAAGCAAGGAUAUACAGAGGAGAGGAAAGCAAGAGGAGGACAUGAGGAUCACCCAUGUAGAAGGUGCAGAGA [JR_Exclu2_Sub019] (puzzle: Exclusion 2) |  |  |  | 67.4 | 68.8 | 63.5 |
| GGAACGACAGGAUAUACAUGAGGAUCACCCAUGUAAAGAAGAGUAAAAUGUGAAAGCGGUAGAAGGGUCAAGAA [AK-MS2ROC-r4-exclusion3-6] (Eterna round: R97, puzzle: Exclusion 3) | 42.3 |  | 43.9 |  |  |  |
| ACUUAUUGAGGAUAUACAUUAAAUUACAUGAGGAUCACCCAUGUUCUUCAAUGUAUAUAUGUAGAAGGCAAAAGAG [Mat - Exclusion 5 - JL Mod - D22] (Eterna round: R97, puzzle: Exclusion 5) | 26.5 |  | 14.4 |  |  |  |
| CUGUGUAGACAGGAUAUGCUGUACAAAAGUACAGCAGAAGGGUCUACAUGAGGAUCACCCAUGUGUACCUCAUG [)mei Ex6 B26] (Eterna round: R97, puzzle: Exclusion 6) | 21.2 |  | 106 |  |  |  |
| GUAGAGUGAGGAUAUACGAGAUCGAUAGAUCAACGAUCCAAACAUGAGGAUCACCCAUGUAGAAGGCACUCUAC [Mat - Exclusion 2 - Eli Mod - D8] (Eterna round: R97, puzzle: Exclusion 2) | 224 |  | 23.1 |  |  |  |
| CCGAAUAAGUAGGAUAUCGUAUCGGAAACGAUACGAGAAGGGCUAACAUGAGGAUCACCCAUGUUCCUUAACGG [Fiskers Ex 6 - 16] (puzzle: Exclusion 6) |  |  |  | 20 | 16.4 | 18.7 |
| GGUCUGCGAGGAUAUACAUGAGGAUCACCCAUGUGCGAGAAACUAGUGAGGUCGGUUGGUAGAAGGCGCGGACG [Mat - Exclusion 3 - Mod of JL D89] (puzzle: Exclusion 3) |  |  |  | 13.9 | 14 | 32.8 |
| UAAUGGACAGGAUAUACAUGAGGAUCACCCAUGUCGGCCGGUCCUGUUCUAAGAGCGAGUAGAAGGGUCACGUU [Eternabot (L1) Solution 4] (Eterna round: R97, puzzle: Exclusion 3) | 11.6 |  | 11.9 |  |  |  |
| ACUUAUAGAGGAUAUACAGAAUAUUACAUGAGGAUCACCCAUGUUCUUCAAUGUAUAUUUGUAGAAGGCUAAGGAA [EX-5 Malc#7] (puzzle: Exclusion 5) |  |  |  | 192 | 45.6 | 40.6 |
| UCAUGUUUAGAGGAUAUGAUUACUCUAGAGUGAUCAGAAGGCUAGACAUGAGGAUCACCCAUGUCAUAACAUGA [Exclusion 6 - B - 16:a] (puzzle: Exclusion 6) |  |  |  | 56.3 | 85.7 | 127 |
| GAGGUGUUAGGAUAUCGGAGAUGGAGAAGAACGGGAAGAGCCGAGAAGGAACAUGAGGAUCACCCAUGUAGGUG [JR_Exclu4_Sub030] (puzzle: Exclusion 4) |  |  |  | 326 | 270 | 696 |
| CAGGAACCAGCAGGAUAUGUGCGGCUGCUAACGUGAACCAACAUGAGGAUCACCCAUGUAGGCACGCAGAAGGGCUCAGCCUGC [Orgevebe] (Eterna round: R96, puzzle: Exclusion NG 2) | 8.78 | 10.6 | 13.5 |  |  |  |
| AGUCGGAAGACAAAAGGAAACAUGAGGAUCACCCAUGUAAAGGGUGAAAACAAGCCACCCGCUCGUCUUAAAGAAAA [Mat - Sensor v2- JL mod - D44] (Eterna round: R96, puzzle: Sensor v2, turn-off variant) | 40.7 | 144 | 46.1 |  |  |  |
| CCAAGCUUGUUCAUUAACCACAUGAGGAUCACCCAUGUCUUGGCAAUUAUGACUUGCCCGUCAGGUGCUCGUCUUAU [Sensor-V1 #35] (Eterna round: R97, puzzle: Sensor, turn-off variant 1) | 65.5 |  | 71.3 |  |  |  |

— the supplement of paper PMC9170038
